According to article PMC10946326:

Legend:
MOZ WH1 = target: T1, MOZ WH1 (Homo sapiens, UniProt Q92794 2-86); experiment: NMR
T1 sequence: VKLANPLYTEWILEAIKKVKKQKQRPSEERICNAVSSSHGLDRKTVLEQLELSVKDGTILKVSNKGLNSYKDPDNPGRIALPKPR

MORF WH1 = target: T2, MORF WH1 (Homo sapiens, UniProt Q8WYB5 5-84); experiment: EMSA
T2 sequence: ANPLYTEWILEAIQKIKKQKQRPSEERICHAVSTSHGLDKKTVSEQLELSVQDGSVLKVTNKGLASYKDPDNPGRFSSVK

MORF WH1;p300 TAZ2 = MORF WH1;p300 TAZ2 (Homo sapiens;Homo sapiens?, UniProt Q8WYB5;Q09472 5-84;1722-1812, |); experiment: NMR
MORF WH1;p300 TAZ2, sequence (Q09472 1722-1812, one chain of several): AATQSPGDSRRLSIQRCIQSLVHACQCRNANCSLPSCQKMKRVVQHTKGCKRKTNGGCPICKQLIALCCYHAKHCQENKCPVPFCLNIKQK

Measured: binding result

B1: CpG-DNA16 (dsDNA)
DNA 1: TAACCTGCGCACCATA
DNA 2: TATGGTGCGCAGGTTA
binds: MOZ WH1 | MORF WH1 | MORF WH1;p300 TAZ2
